# Data taken from patent US20160272693A1 (ZEALAND PHARMA A S, published 2016).
# *1 amine or outer side, *2 acyl side, *3 side chain or, on linkers, in order; H or OH if unused. Bridges are numbered along the chain shown (N, C = ends). [ ]: non-standard residue; d: D form. The star is where a group is joined. C20 diacid = O=C(O)CCCCCCCCCCCCCCCCCCC(=O)*; γGlu = O=C(O)[C@H](CCC(=O)[*:2])N[*:1]; Hyp = O=C(O)[C@@H]1C[C@@H](O)CN1; NMeI = CC[C@H](C)[C@H](NC)C(=O)O; Aad = N[C@@H](CCCC(=O)O)C(=O)O; Sar = CNCC(=O)O
# T1: human amylin receptor 3 (hAMYR3), hCTR2 co-expressed with human receptor activity modifying protein 3 (hRAMP3) (human, UniProt P30988 25-474; O60896 24-148)
# T1 sequence (looked up) 1: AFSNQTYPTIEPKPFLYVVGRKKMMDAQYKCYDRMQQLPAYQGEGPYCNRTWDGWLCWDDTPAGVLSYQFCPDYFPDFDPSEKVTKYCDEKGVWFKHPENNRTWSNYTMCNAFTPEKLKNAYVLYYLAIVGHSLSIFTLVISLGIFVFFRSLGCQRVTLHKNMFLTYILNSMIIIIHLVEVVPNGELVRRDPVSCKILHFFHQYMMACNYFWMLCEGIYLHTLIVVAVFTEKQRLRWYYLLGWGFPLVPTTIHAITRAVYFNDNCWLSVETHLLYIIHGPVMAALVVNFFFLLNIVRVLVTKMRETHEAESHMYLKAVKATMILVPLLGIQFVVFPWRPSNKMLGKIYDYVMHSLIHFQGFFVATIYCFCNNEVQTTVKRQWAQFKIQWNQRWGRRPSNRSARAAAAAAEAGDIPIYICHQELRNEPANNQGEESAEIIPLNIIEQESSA
# T1 sequence (looked up) 2: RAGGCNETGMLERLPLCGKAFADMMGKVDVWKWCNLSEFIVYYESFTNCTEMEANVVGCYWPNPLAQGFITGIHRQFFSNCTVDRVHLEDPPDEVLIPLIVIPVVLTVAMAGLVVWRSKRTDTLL
# Biological target: T1, human amylin receptor 3 (hAMYR3), hCTR2 …
# Experiment: cell-based or functional assay
row,Binder,hAMYR3 EC50 (nM); cAMP induction [nM]
1,{C20 diacid}-[γGlu]RCQTATCATDRLAHFLQRSSF[Sar]A[NMeI]LSSTEVGSGT[Hyp]-NH2 (disulfide 3-8; SMILES CC[C@H](C)[C@@H](C(=O)N[C@@H](CC(C)C)C(=O)N[C@@H](CO)C(=O)N[C@@H](CO)C(=O)N[C@H](C(=O)N[C@@H](CCC(=O)O)C(=O)N[C@H](C(=O)NCC(=O)N[C@@H](CO)C(=O)NCC(=O)N[C@H](C(=O)N1C[C@H](O)C[C@H]1C(N)=O)[C@@H](C)O)C(C)C)[C@@H](C)O)N(C)C(=O)[C@H](C)NC(=O)CN(C)C(=O)[C@H](Cc1ccccc1)NC(=O)[C@H](CO)NC(=O)[C@H](CO)NC(=O)[C@H](CCCNC(=N)N)NC(=O)[C@H](CCC(N)=O)NC(=O)[C@H](CC(C)C)NC(=O)[C@H](Cc1ccccc1)NC(=O)[C@H](Cc1c[nH]cn1)NC(=O)[C@H](C)NC(=O)[C@H](CC(C)C)NC(=O)[C@H](CCCNC(=N)N)NC(=O)[C@H](CC(=O)O)NC(=O)[C@@H](NC(=O)[C@H](C)NC(=O)[C@@H]1CSSC[C@H](NC(=O)[C@H](CCCNC(=N)N)NC(=O)CC[C@H](NC(=O)CCCCCCCCCCCCCCCCCCC(=O)O)C(=O)O)C(=O)N[C@@H](CCC(N)=O)C(=O)N[C@@H]([C@@H](C)O)C(=O)N[C@@H](C)C(=O)N[C@@H]([C@@H](C)O)C(=O)N1)[C@@H](C)O) [[19CD]-isoGlu-R-C( )-QTAT-C( )-ATDRLAHFLQRSSF-Gly(Me)-A-Ile(Me)-LSSTEVGSGT-Hyp-NH2 (Compd. 91)],0.17
2,{C20 diacid}-[γGlu]RCQTATCATDRLA[Aad]FLQRF[Sar]A[NMeI]LSSTEVGSNT[Hyp]-NH2 (disulfide 3-8; SMILES CC[C@H](C)[C@@H](C(=O)N[C@@H](CC(C)C)C(=O)N[C@@H](CO)C(=O)N[C@@H](CO)C(=O)N[C@H](C(=O)N[C@@H](CCC(=O)O)C(=O)N[C@H](C(=O)NCC(=O)N[C@@H](CO)C(=O)N[C@@H](CC(N)=O)C(=O)N[C@H](C(=O)N1C[C@H](O)C[C@H]1C(N)=O)[C@@H](C)O)C(C)C)[C@@H](C)O)N(C)C(=O)[C@H](C)NC(=O)CN(C)C(=O)[C@H](Cc1ccccc1)NC(=O)[C@H](CCCNC(=N)N)NC(=O)[C@H](CCC(N)=O)NC(=O)[C@H](CC(C)C)NC(=O)[C@H](Cc1ccccc1)NC(=O)[C@H](CCCC(=O)O)NC(=O)[C@H](C)NC(=O)[C@H](CC(C)C)NC(=O)[C@H](CCCNC(=N)N)NC(=O)[C@H](CC(=O)O)NC(=O)[C@@H](NC(=O)[C@H](C)NC(=O)[C@@H]1CSSC[C@H](NC(=O)[C@H](CCCNC(=N)N)NC(=O)CC[C@H](NC(=O)CCCCCCCCCCCCCCCCCCC(=O)O)C(=O)O)C(=O)N[C@@H](CCC(N)=O)C(=O)N[C@@H]([C@@H](C)O)C(=O)N[C@@H](C)C(=O)N[C@@H]([C@@H](C)O)C(=O)N1)[C@@H](C)O) [[19CD]-isoGlu-R-C( )-QTAT-C( )-ATDRLA-Aad-FLQRF-Gly(Me)-A-Ile(Me)-LSSTEVGSNT-Hyp-NH2 (Compd. 95)],0.2
3,{C20 diacid}-[γGlu]RCGTATCATERLAHFLTRSSF[Sar]A[NMeI]LSSTEVGSST[Hyp]-NH2 (disulfide 3-8) [[19CD]-isoGlu-R-C( )-GTAT-C( )-ATERLAHFLTRSSF-Gly(Me)-A-Ile(Me)-LSSTEVGSST-Hyp-NH2 (Compd. 9)],0.29
4,{C20 diacid-γGlu}-RCNTATCATQRLADFLHRSSF[Sar]A[NMeI]LSSTEVGSETP-NH2 (disulfide 2-7; SMILES CC[C@H](C)[C@@H](C(=O)N[C@@H](CC(C)C)C(=O)N[C@@H](CO)C(=O)N[C@@H](CO)C(=O)N[C@H](C(=O)N[C@@H](CCC(=O)O)C(=O)N[C@H](C(=O)NCC(=O)N[C@@H](CO)C(=O)N[C@@H](CCC(=O)O)C(=O)N[C@H](C(=O)N1CCC[C@H]1C(N)=O)[C@@H](C)O)C(C)C)[C@@H](C)O)N(C)C(=O)[C@H](C)NC(=O)CN(C)C(=O)[C@H](Cc1ccccc1)NC(=O)[C@H](CO)NC(=O)[C@H](CO)NC(=O)[C@H](CCCNC(=N)N)NC(=O)[C@H](Cc1c[nH]cn1)NC(=O)[C@H](CC(C)C)NC(=O)[C@H](Cc1ccccc1)NC(=O)[C@H](CC(=O)O)NC(=O)[C@H](C)NC(=O)[C@H](CC(C)C)NC(=O)[C@H](CCCNC(=N)N)NC(=O)[C@H](CCC(N)=O)NC(=O)[C@@H](NC(=O)[C@H](C)NC(=O)[C@@H]1CSSC[C@H](NC(=O)[C@H](CCCNC(=N)N)NC(=O)CC[C@H](NC(=O)CCCCCCCCCCCCCCCCCCC(=O)O)C(=O)O)C(=O)N[C@@H](CC(N)=O)C(=O)N[C@@H]([C@@H](C)O)C(=O)N[C@@H](C)C(=O)N[C@@H]([C@@H](C)O)C(=O)N1)[C@@H](C)O) [[19CD]-isoGlu-R-C( )-NTAT-C( )-ATQRLADFLHRSSF-Gly(Me)-A-Ile(Me)-LSSTEVGSETP-NH2 (Compd. 1)],0.23

# The next lines start with the values.
row,hAMYR3 EC50 (nM); cAMP induction [nM],Binder
1,0.43,{C20 diacid}-[γGlu]RCQTATCATERLA[Aad]FLQRSSF[Sar]A[NMeI]LSSTEVGSNTP-NH2 (disulfide 3-8; SMILES CC[C@H](C)[C@@H](C(=O)N[C@@H](CC(C)C)C(=O)N[C@@H](CO)C(=O)N[C@@H](CO)C(=O)N[C@H](C(=O)N[C@@H](CCC(=O)O)C(=O)N[C@H](C(=O)NCC(=O)N[C@@H](CO)C(=O)N[C@@H](CC(N)=O)C(=O)N[C@H](C(=O)N1CCC[C@H]1C(N)=O)[C@@H](C)O)C(C)C)[C@@H](C)O)N(C)C(=O)[C@H](C)NC(=O)CN(C)C(=O)[C@H](Cc1ccccc1)NC(=O)[C@H](CO)NC(=O)[C@H](CO)NC(=O)[C@H](CCCNC(=N)N)NC(=O)[C@H](CCC(N)=O)NC(=O)[C@H](CC(C)C)NC(=O)[C@H](Cc1ccccc1)NC(=O)[C@H](CCCC(=O)O)NC(=O)[C@H](C)NC(=O)[C@H](CC(C)C)NC(=O)[C@H](CCCNC(=N)N)NC(=O)[C@H](CCC(=O)O)NC(=O)[C@@H](NC(=O)[C@H](C)NC(=O)[C@@H]1CSSC[C@H](NC(=O)[C@H](CCCNC(=N)N)NC(=O)CC[C@H](NC(=O)CCCCCCCCCCCCCCCCCCC(=O)O)C(=O)O)C(=O)N[C@@H](CCC(N)=O)C(=O)N[C@@H]([C@@H](C)O)C(=O)N[C@@H](C)C(=O)N[C@@H]([C@@H](C)O)C(=O)N1)[C@@H](C)O) [[19CD]-isoGlu-R-C( )-QTAT-C( )-ATERLA-Aad-FLQRSSF-Gly(Me)-A-Ile(Me)-LSSTEVGSNTP-NH2 (Compd. 93)]
2,0.22,{C20 diacid}-[γGlu]RCQTATCATDRLAHFLQRSSF[Sar]A[NMeI]LSSTEVGSNTP-NH2 (disulfide 3-8; SMILES CC[C@H](C)[C@@H](C(=O)N[C@@H](CC(C)C)C(=O)N[C@@H](CO)C(=O)N[C@@H](CO)C(=O)N[C@H](C(=O)N[C@@H](CCC(=O)O)C(=O)N[C@H](C(=O)NCC(=O)N[C@@H](CO)C(=O)N[C@@H](CC(N)=O)C(=O)N[C@H](C(=O)N1CCC[C@H]1C(N)=O)[C@@H](C)O)C(C)C)[C@@H](C)O)N(C)C(=O)[C@H](C)NC(=O)CN(C)C(=O)[C@H](Cc1ccccc1)NC(=O)[C@H](CO)NC(=O)[C@H](CO)NC(=O)[C@H](CCCNC(=N)N)NC(=O)[C@H](CCC(N)=O)NC(=O)[C@H](CC(C)C)NC(=O)[C@H](Cc1ccccc1)NC(=O)[C@H](Cc1c[nH]cn1)NC(=O)[C@H](C)NC(=O)[C@H](CC(C)C)NC(=O)[C@H](CCCNC(=N)N)NC(=O)[C@H](CC(=O)O)NC(=O)[C@@H](NC(=O)[C@H](C)NC(=O)[C@@H]1CSSC[C@H](NC(=O)[C@H](CCCNC(=N)N)NC(=O)CC[C@H](NC(=O)CCCCCCCCCCCCCCCCCCC(=O)O)C(=O)O)C(=O)N[C@@H](CCC(N)=O)C(=O)N[C@@H]([C@@H](C)O)C(=O)N[C@@H](C)C(=O)N[C@@H]([C@@H](C)O)C(=O)N1)[C@@H](C)O) [[19CD]-isoGlu-R-C( )-QTAT-C( )-ATDRLAHFLQRSSF-Gly(Me)-A-Ile(Me)-LSSTEVGSNTP-NH2 (Compd. 92)]
3,0.28,{C20 diacid-γGlu}-RCQTATCATERLAHFLQRF[Sar]A[NMeI]LSSTEVGSNTP-NH2 (disulfide 2-7; SMILES CC[C@H](C)[C@@H](C(=O)N[C@@H](CC(C)C)C(=O)N[C@@H](CO)C(=O)N[C@@H](CO)C(=O)N[C@H](C(=O)N[C@@H](CCC(=O)O)C(=O)N[C@H](C(=O)NCC(=O)N[C@@H](CO)C(=O)N[C@@H](CC(N)=O)C(=O)N[C@H](C(=O)N1CCC[C@H]1C(N)=O)[C@@H](C)O)C(C)C)[C@@H](C)O)N(C)C(=O)[C@H](C)NC(=O)CN(C)C(=O)[C@H](Cc1ccccc1)NC(=O)[C@H](CCCNC(=N)N)NC(=O)[C@H](CCC(N)=O)NC(=O)[C@H](CC(C)C)NC(=O)[C@H](Cc1ccccc1)NC(=O)[C@H](Cc1c[nH]cn1)NC(=O)[C@H](C)NC(=O)[C@H](CC(C)C)NC(=O)[C@H](CCCNC(=N)N)NC(=O)[C@H](CCC(=O)O)NC(=O)[C@@H](NC(=O)[C@H](C)NC(=O)[C@@H]1CSSC[C@H](NC(=O)[C@H](CCCNC(=N)N)NC(=O)CC[C@H](NC(=O)CCCCCCCCCCCCCCCCCCC(=O)O)C(=O)O)C(=O)N[C@@H](CCC(N)=O)C(=O)N[C@@H]([C@@H](C)O)C(=O)N[C@@H](C)C(=O)N[C@@H]([C@@H](C)O)C(=O)N1)[C@@H](C)O) [[19CD]-isoGlu-R-C( )-QTAT-C( )-ATERLAHFLQRF-Gly(Me)-A-Ile(Me)-LSSTEVGSNTP-NH2 (Compd. 96)]
4,0.24,{C20 diacid-γGlu}-RCQTATCATERLAHFLQRSSF[Sar]A[NMeI]LSSTEVGSGT[Hyp]-NH2 (disulfide 2-7) [[19CD]-isoGlu-R-C( )-QTAT-C( )-ATERLAHFLQRSSF-Gly(Me)-A-Ile(Me)-LSSTEVGSGT-Hyp-NH2 (Compd. 90)]
